Assay results from patent publication US8173131B2, “Compositions and methods for modulating RSV infection and immunity” (PerkinElmer Health Sciences, Inc., priority 2000, dated 2012).

T1: CX3CR1 (293-CX3CR1 cells) (Homo sapiens, UniProt P49238)
T1 construct: expressed in transfected cells
T1 sequence (P49238 1-355): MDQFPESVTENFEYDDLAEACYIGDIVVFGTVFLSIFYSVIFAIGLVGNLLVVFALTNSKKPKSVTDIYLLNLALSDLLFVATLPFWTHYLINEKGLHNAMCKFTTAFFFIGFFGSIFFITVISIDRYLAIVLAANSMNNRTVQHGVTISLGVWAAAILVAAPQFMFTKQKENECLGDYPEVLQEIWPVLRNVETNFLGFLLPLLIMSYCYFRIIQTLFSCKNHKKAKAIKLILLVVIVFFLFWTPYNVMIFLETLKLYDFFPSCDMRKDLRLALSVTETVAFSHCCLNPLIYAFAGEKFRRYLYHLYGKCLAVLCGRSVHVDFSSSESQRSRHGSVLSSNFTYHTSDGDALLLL

B1: G glycoprotein: purified G glycoprotein isolated from RSV/A2-infected Vero cells (protein)
chain: MSKNKDQRTAKTLERTWDTLNHLLFISSCLYKLNLKSVAQITLSILAMIISTSLIIAAIIFIASANHKVTPTTAIIQDATSQIKNTTPTYLTQNPQLGISPSNPSEITSQITTILASTTPGVKSTLQSTTVKTKNTTTTQTQPSKPTTKQRQNKPPSKPNNDFHFEVFNFVPCSICSNNPTCWAICKRIPNKKPGKKTTTKPTKKPTLKTTKKDPKPQTTKSKEVPTTKPTEEPTINTTKTNIITTLLTSNTTGNPELTSQMETFHSTSSEGNPSPSQVSTTSEYPSQPSSPPNTPRQ

Assays:
[1] = system: bronchoalveolar leukocytes (BAL); test: BAL cell infiltration and cell types in RSV-infected mice following in vivo peptide treatment; design: species or system BALB/c mice; conditions: in words; for total BAL numbers compared to mice treated with RT34, Δ−1 or PBS: day 3 pi; for course of BAL numbers: from day 3 to day 14 pi
Excerpt: Total pulmonary leukocyte trafficking following treatment of mice with peptides containing a CX3C motif (RT33 and EYp1) (A) or peptides without a CX3C motif (RT34, Δ+1, Δ−1)(B).
(§1) Flow cytometry results following treatment (d−1) of mice with PBS, RT33, RT34, Δ+1, Δ−1 and EYp1 peptides (100 μm). BAL cells were stained with antibodies against B220^+ (A, D, G), CD3^+ (B, E, H) and CD11b^+ (C, F, I) cells. Data is expressed as the total BAL cells/lung±SEM at days 3, 5, 7 and 14 post-infection. A representative experiment from 3 independent experiments is shown.
as §1, with “NK (DX5^+)” for “B220^+”, “(A, C, E) and PMN (RB6-8C5^+) cells (B,” for “(A,”, “F).” for “G), CD3^+ (B, E, H) and CD11b^+ (C, F, I) cells.”
On day −1, prior to RSV infection, mice were i.p. treated (0.1 ml/mouse) with 100 μM of G glycoprotein peptides RT33 (CWAIC) (SEQ ID NO: 12), RT34 (lacks the CX3C motif) or peptides with changes in the CX3C motif (Δ+1, Δ−1, EYp1). Control mice were treated with PBS containing a similar dilution of DMSO used to solubilize the peptides.
Mice were anesthetized with Avertin and exsanguinated by severing the right caudal artery. Bronchoalveolar leukocyte (BAL) cells were harvested by lung lavage with PBS containing 1% bovine serum albumin (BSA, Sigma). The procedure used for extracellular staining of BAL cells was modified for microculture staining as described (55,57). Briefly, BAL cells were washed in Dulbecco's PBS (GIBCO) containing 1% bovine serum albumin (Sigma), blocked with 10% normal mouse sera diluted in PBS containing 1% bovine serum albumin, and then stained (4° C., 30 min) with an appropriate dilution of FITC-conjugated or PE-conjugated anti-CD3ε (145-2C11), anti-CD45R/B220 (RA3-6B2), anti-CD8 (Ly-2), anti-neutrophil (PMN) (RB6-8C5), anti-CD11b (M1/70) and isotype antibody controls (all from Pharmingen, San Diego, Calif.).

[2] = molecular target: T1, CX3CR1 (293-CX3CR1 cells); test: G glycoprotein and Fkn binding to 293-CX3CR1 cells by flow cytometry; conditions: for percent positive staining of CX3CR1-293 cells: representative experiment, FIG. 1
Protocol: Purified G glycoprotein was examined for binding to 293-CX3CR1 cells^33. A pcDNA 3.1 plasmid containing the CX3CR1 gene and a neomycin resistance gene was used to stably transfect human embryonic kidney (HEK) cells. Neomycin resistance was used for selection and maintenance of plasmid transfection of human embryonic kidney cells.
All binding studies were done on ice and either G glycoprotein or human Fkn (R&D Diagnostics, Minneapolis, […]) containing 1% bovine serum albumin (Sigma) and incubated with the 293-CX3CR1 cells or 293 control cells for 30 min at 4° C. […] For inhibition studies, 100 pM-1 μM human Fkn or G glycoprotein was preincubated with the cells for 30 min at 4° C. Without washing, 100 pM of either Fkn or G glycoprotein was added and incubated for 30 min at 4° C. The cells were washed, blocked with FcγRIII blocking antibody (HB197) for 30 min on ice, washed and stained as appropriate with either an anti-G glycoprotein monoclonal antibody cocktail (132-5B, 132-5G, 130-2G, 232-IF) or a biotinylated anti-G glycoprotein monoclonal antibody cocktail (130-2G, 131-2G) or anti-Fkn monoclonal antibody (51637.11; R&D Diagnostics). Concentrations of 1 μg of anti-G glycoprotein monoclonal antibody (131-2G)^34, rabbit anti-CX3CR1 sera^33, and anti-CX3CR1 monoclonal antibody containing 10 μg/ml heparin were used in all experiments. […] Staining was detected with absorbed FITC-goat anti-mouse (H & L chain) monoclonal antibody (PharMingen, San Diego, Calif.) or streptavidin-PE (PharMingen) using flow cytometry (FACScan, Becton-Dickinson, Mountain View, Calif.). A 76 amino acid ^125I-Fkn polypeptide comprising the […] (NEN, Boston, Mass.) was used in radioligand studies^33. As a control, the void volume following purified G glycoprotein passaged over an anti-G glycoprotein antibody (130-2G) affinity column was examined by flow cytometry for binding to either 293 or 293-CX3CR1 cells.
The receptor for Fkn, CX3CR1, was previously identified and characterized using anti-CX3CR1 rabbit antiserum and CX3CR1-transfected human embryonic kidney cells (293-CX3CR1 cells)^33.
The percent Fkn-maximum binding was calculated using the equation: [% G (or Fkn) 293-CX3CR1]-[% G (or Fkn) 293]/[% Fkn (10 nM) 293-CX3CR1]-[% Fkn (10 nM) 293], where G=G glycoprotein, Fkn=fractalkine, 293-CX3CR1=CX3CR1-transfected 293, 293=untransfected 293. The concentration of G glycoprotein was estimated using a molecular weight of 90 kD.

[3] = 10 nM ligand, 293-CX3CR1 minus 293 binding relative to 10 nM Fkn

Molecule | total BAL numbers compared to mice treated with RT34, Δ−1 or PBS [1] | course of BAL numbers [1] | Fkn-Maximum Binding (%) ([2]; 10 pM ligand) | Fkn-Maximum Binding (%) ([2]; 100 pM ligand) | Fkn-Maximum Binding (%) ([2]; 1 nM ligand) | Fkn-Maximum Binding (%) [2, 3] [%] | percent positive staining of CX3CR1-293 cells ([2]; 10 nM ligand) [%] | concentration saturating 293-CX3CR1 binding ([2]; 30 min at 4° C.) [nM] | numbers of BAL cell types (B220+, CD3+, CD11b+, NK, PMN) ([1]; days 3, 5, 7 and 14 pi) | binding to 293-CX3CR1 cells ([2]; wheat germ lectin column fraction (G, F glycoprotein) or purified recombinant polyhistidine-tagged G glycoprotein) [%]
TCWAIACKRIPNK [Δ + 1] | reduced BAL infiltrate | increased | – | – | – | – | – | – | – | –
Fkn: CX3C chemokine fractalkine (R&D), ligand of CX3CR1 [reference compound] | – | – | 46 | 98 | 99 | 98 | 88 | 1 to 10 | – | –
TCWAICKRIPNK [RT33] | reduced BAL numbers | declined | – | – | – | – | – | – | reduced numbers of BAL cell types | –
B1 | – | – | 40 | 80 | 87 | 88 | 84 | – | – | 70
